The results in this text go back to paper PMC9089897 (PLoS Pathogens, 2022).

This assay concerns the target biotinylated avi-tagged SARS-CoV-2 (Wuhan) receptor binding domain (RBD) (SARS-CoV-2 (Wuhan strain), UniProt P0DTC2, biotin (avi-tagged RBD labeled with biotin, BirA500)). Kind of assay: BLI. To be noted: both partners purified.

B1: REGN10933 (antibody, V domains shown)
VH: QVQLVESGGGLVKPGGSLRLSCAASGFTFSDYYMSWIRQAPGKGLEWVSYITYSGSTIYYADSVKGRFTISRDNAKSSLYLQMNSLRAEDTAVYYCARDRGTTMVPFDYWGQGTLVTVSS
VL: DIQMTQSPSSLSASVGDRVTITCQASQDITNYLNWYQQKPGKAPKLLIYAASNLETGVPSRFSGSGSGTDFTFTISGLQPEDIATYYCQQYDNLPLTFGGGTKVEIK
notes: also called Casirivimab
Consider B1, for which the binding result is “binds”.

B2: REGN10987 (antibody, V domains shown)
VH: QVQLVESGGGVVQPGRSLRLSCAASGFTFSNYAMYWVRQAPGKGLEWVAVISYDGSNKYYADSVKGRFTISRDNSKNTLYLQMNSLRTEDTAVYYCASGSDYGDYLLVYWGQGTLVTVSS
VL: QSALTQPASVSGSPGQSITISCTGTSSDVGGYNYVSWYQQHPGKAPKLMIYDVSKRPSGVSNRFSGSKSGNTASLTISGLQSEDEADYYCNSLTSISTWVFGGGTKLTVL
notes: also called Imdevimab
Regarding B2, the binding result is given as “binds”.
